Results as given in publication PMC5507294 (PLoS ONE, 2017).

Key:
[1] = biological target: T1, PR55α, the α isoform of the 55 kDa B-type regulatory subunit of PP2A (human (endogenous in HECs), UniProt P63151 1-447); experiment: co-IP; GSK-3β, PR55α or PP2Ac immunoprecipitated (antibody with protein A or protein G agarose, 90 min at 4°C) from RIPA lysates of HECs with equal amounts of protein; immunoblot for β-catenin; cells 3 d in KGM or in CR culture (F+Y+J2); settings: partners not purified
T1 construct: PR55α, α isoform of the 55 kDa B-type regulatory subunit of protein phosphatase 2A, endogenous in primary human ectocervical cells (HECs); also called PP2A regulatory subunit; source: endogenous, lysate of primary human ectocervical cells (HECs) in RIPA buffer
T1 sequence (looked up): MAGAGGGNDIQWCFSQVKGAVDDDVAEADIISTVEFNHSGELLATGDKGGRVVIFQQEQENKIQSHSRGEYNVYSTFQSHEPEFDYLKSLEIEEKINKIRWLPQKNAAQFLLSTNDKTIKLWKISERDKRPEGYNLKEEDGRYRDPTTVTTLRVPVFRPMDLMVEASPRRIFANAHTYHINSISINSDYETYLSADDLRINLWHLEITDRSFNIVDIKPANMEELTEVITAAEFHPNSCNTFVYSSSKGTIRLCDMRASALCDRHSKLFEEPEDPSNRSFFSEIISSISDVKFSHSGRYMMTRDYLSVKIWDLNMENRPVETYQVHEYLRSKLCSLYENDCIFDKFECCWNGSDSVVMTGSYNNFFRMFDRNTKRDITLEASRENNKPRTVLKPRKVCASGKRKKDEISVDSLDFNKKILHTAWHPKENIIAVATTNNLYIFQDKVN

[2] = biological target: T2, PP2A catalytic subunit (PP2Ac) (human (endogenous in HECs), UniProt P67775 1-309); experiment: as above; settings: partners not purified
T2 construct: catalytic (C) subunit of protein phosphatase 2A, endogenous in primary human ectocervical cells (HECs); also called PP2A C subunit; source: endogenous, lysate of primary human ectocervical cells (HECs) in RIPA buffer
T2 sequence (P67775 whole entry): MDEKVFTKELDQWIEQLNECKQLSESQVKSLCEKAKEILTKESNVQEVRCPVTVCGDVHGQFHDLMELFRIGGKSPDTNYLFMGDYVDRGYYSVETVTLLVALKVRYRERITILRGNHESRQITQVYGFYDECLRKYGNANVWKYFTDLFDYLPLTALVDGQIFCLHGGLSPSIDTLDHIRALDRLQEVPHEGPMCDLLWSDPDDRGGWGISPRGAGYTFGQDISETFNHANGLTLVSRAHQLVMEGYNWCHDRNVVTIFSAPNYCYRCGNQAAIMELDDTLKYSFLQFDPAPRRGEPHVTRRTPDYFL

B1: β-catenin (natural protein, human (endogenous in HECs), UniProt P35222 1-781, looked up)
chain: MATQADLMELDMAMEPDRKAAVSHWQQQSYLDSGIHSGATTTAPSLSGKGNPEEEDVDTSQVLYEWEQGFSQSFTQEQVADIDGQYAMTRAQRVRAAMFPETLDEGMQIPSTQFDAAHPTNVQRLAEPSQMLKHAVVNLINYQDDAELATRAIPELTKLLNDEDQVVVNKAAVMVHQLSKKEASRHAIMRSPQMVSAIVRTMQNTNDVETARCTAGTLHNLSHHREGLLAIFKSGGIPALVKMLGSPVDSVLFYAITTLHNLLLHQEGAKMAVRLAGGLQKMVALLNKTNVKFLAITTDCLQILAYGNQESKLIILASGGPQALVNIMRTYTYEKLLWTTSRVLKVLSVCSSNKPAIVEAGGMQALGLHLTDPSQRLVQNCLWTLRNLSDAATKQEGMEGLLGTLVQLLGSDDINVVTCAAGILSNLTCNNYKNKMMVCQVGGIEALVRTVLRAGDREDITEPAICALRHLTSRHQEAEMAQNAVRLHYGLPVVVKLLHPPSHWPLIKATVGLIRNLALCPANHAPLREQGAIPRLVQLLVRAHQDTQRRTSMGGTQQQFVEGVRMEEIVEGCTGALHILARDVHNRIVIRGLNTIPLFVQLLYSPIENIQRVAAGVLCELAQDKEAAEAIEAEGATAPLTELLHSRNEGVATYAAAVLFRMSEDKPQDYKKRLSVELTSSLFRTEPMAWNETADLGLDIGAQGEPLGYRQDDPSYRSFHSGGYGQDALGMDPMMEHEMGGHHPGADYPVDGLPDLGHAQDLMDGLPPGDSNQLAWFDTDL
notes: β-catenin, endogenous in primary human ectocervical cells (HECs); Endogenous protein; its phosphorylation state in the co-precipitate was not determined; source: endogenous, lysate of primary human ectocervical cells (HECs) in RIPA buffer
**Q.** B1 was tested. Which “fold more co-precipitated in CR cells than in KGM” value [1] did it give?
**A.** 25 fold

**Q.** What about the “fold more co-precipitated in CR cells than in KGM” value [2] of the same binder?
**A.** 3.8 fold
